Data on 2 molecules can be found in patent publication US20210206881A1 (Amgen, published 2021).

The target of assay [1] is T1, human B-cell activating factor (BAFF) (human, UniProt Q9Y275 134-285). Nature of the assay: cell-based or functional assay.
Assay [2] concerns the target BAFF used in the cynomolgus monkey B cell proliferation assay. The assay is described as follows: cell-based or functional assay.
Assay [3] deals with T2, human B7RP1-Fc fusion protein (human, UniProt O75144 19-256, limits assumed).
T2 sequence (looked up): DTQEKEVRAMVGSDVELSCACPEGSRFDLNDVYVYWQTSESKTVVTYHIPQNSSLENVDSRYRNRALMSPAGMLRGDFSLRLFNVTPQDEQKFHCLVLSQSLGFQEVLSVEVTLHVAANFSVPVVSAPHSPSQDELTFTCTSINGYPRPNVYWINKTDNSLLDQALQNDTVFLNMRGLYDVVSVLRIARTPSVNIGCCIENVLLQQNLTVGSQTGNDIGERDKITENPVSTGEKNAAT
Nature of the assay: cell-based or functional assay.

The target of assay [4] is B7RP1 used in the cynomolgus monkey T cell proliferation assay. The assay is described as follows: cell-based or functional assay.
Assay [5] addresses T1, human B-cell activating factor (BAFF). Nature of the assay: KinExA (Kinetic Exclusion Assay). Here is the method: (§1) The binding affinities of the heterodimeric bispecific antibodies P74293 and P74294 to BAFF and B7RP1 were measured by Kinetic Exclusion Assay (KinExA®; Sapidyne Instruments, Boise, Id.). […] In addition, both of these bispecifics have similar binding affinities to cynomolgus monkey BAFF compared to human BAFF and to cynomolgus monkey B7RP1 compared to human B7RP1.
(A kinetic exclusion assay measures how much of one partner remains free in solution.)

Another assay deals with cynomolgus monkey BAFF (cynomolgus monkey, UniProt A0A2K5V2X4 134-285). Nature of the assay: KinExA (Kinetic Exclusion Assay). The method, then: as §1
The target of assay [6] is T3, human B7-related protein 1 (B7RP1) (human, UniProt O75144 19-256, limits assumed).
T3 construct: also called human B7RP1; ICOSLG
T3 sequence (looked up): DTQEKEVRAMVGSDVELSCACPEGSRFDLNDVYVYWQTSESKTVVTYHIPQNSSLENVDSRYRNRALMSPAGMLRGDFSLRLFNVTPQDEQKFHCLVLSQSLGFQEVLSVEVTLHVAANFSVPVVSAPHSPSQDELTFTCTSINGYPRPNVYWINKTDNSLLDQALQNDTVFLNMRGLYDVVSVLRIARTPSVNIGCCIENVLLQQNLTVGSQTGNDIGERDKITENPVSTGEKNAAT
The assay is described as follows: KinExA (Kinetic Exclusion Assay). Here is the method:
as §1

Another assay has as its target T4, cynomolgus monkey B7RP1 (cynomolgus monkey, UniProt A0A2K5TK64 19-256).
T4 sequence: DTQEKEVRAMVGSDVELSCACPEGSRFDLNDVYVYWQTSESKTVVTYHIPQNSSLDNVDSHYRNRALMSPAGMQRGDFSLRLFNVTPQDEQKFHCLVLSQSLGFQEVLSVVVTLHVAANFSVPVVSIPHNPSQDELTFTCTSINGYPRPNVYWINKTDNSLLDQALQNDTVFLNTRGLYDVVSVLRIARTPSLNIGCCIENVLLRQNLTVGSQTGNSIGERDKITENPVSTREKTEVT
Nature of the assay: KinExA (Kinetic Exclusion Assay). Here is the method:
as §1

T1 sequence (Q9Y275 134-285 limits assumed): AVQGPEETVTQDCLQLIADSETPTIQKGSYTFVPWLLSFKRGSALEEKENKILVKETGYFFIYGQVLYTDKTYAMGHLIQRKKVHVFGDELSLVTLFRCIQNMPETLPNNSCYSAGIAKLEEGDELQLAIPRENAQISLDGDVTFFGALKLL

B1: P74293 BAFF/B7RP1 bispecific molecule (bispecific antibody, human IgG2, kappa)
heavy: EVQLVESGGGLVQPGGSLRLSCAASGFTFSSYWMSWVRQAPGKGLEWVAYIKQDGNEKYYVDSVKGRFTISRDNAKNSLYLQMNSLRAEDTAVYYCAREGILWFGDLPTFWGQGTLVTVSSASTKGPSVFPLAPCSRSTSESTAALGCLVKDYFPEPVTVSWNSGALTSGVHTFPAVLQSSGLYSLSSVVTVPSSNFGTQTYTCNVDHKPSNTKVDKTVERKCCVECPPCPAPPVAGPSVFLFPPKPKDTLMISRTPEVTCVVVDVSHEDPEVQFNWYVDGVEVHNAKTKPREEQFNSTFRVVSVLTVVHQDWLNGKEYKCKVSNKGLPAPIEKTISKTKGQPREPQVYTLPPSREEMTKNQVSLTCLVKGFYPSDIAVEWESNGQPENNYKTTPPMLDSDGSFFLYSKLTVDKSRWQQGNVFSCSVMHEALHNHYTQKSLSLSPGKGGGGGLPGCKWDLLIKQWVCDPLGSGSATGGSGSVASSGSGSATHLLPGCKWDLLIKQWVCDPL
light: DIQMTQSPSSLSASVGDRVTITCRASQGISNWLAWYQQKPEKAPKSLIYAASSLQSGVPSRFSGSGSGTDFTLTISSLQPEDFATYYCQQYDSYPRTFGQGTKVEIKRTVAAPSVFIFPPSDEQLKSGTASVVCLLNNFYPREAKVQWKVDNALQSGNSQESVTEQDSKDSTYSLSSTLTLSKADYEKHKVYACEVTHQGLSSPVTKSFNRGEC
notes: also called anti-BAFF/B7RP1 bispecific P74293
As to B1, the “IC50 (nM) for inhibition of BAFF-mediated human B cell proliferation” value in assay [1] amounted to 0.86 nM. For the same molecule, the “IC50 (nM) for inhibition of BAFF-mediated cynomolgus monkey B cell proliferation” value in assay [2] is 1.6 nM. Also, in assay [3], the “IC50 (nM) for inhibition of B7RP1-mediated human T cell proliferation” value stood at 1.36 nM. Also, in assay [4], the “IC50 (nM) for inhibition of B7RP1-mediated cynomolgus monkey T cell proliferation” value turned out to be 0.29 nM. For the same molecule, the Kd (as a rule, the equilibrium constant for the complex coming apart) was 0.029 nM in assay [5], 0.0223 nM in the assay with cynomolgus monkey BAFF, 0.038 nM in assay [6] and 0.0494 nM with cynomolgus monkey B7RP1.

B2: P74294 BAFF/B7RP1 bispecific molecule (bispecific antibody, human IgG2, kappa)
heavy: EVQLVESGGGLVQPGGSLRLSCAASGFTFSSYWMSWVRQAPGKGLEWVAYIKQDGNEKYYVDSVKGRFTISRDNAKNSLYLQMNSLRAEDTAVYYCAREGILWFGDLPTFWGQGTLVTVSSASTKGPSVFPLAPCSRSTSESTAALGCLVKDYFPEPVTVSWNSGALTSGVHTFPAVLQSSGLYSLSSVVTVPSSNFGTQTYTCNVDHKPSNTKVDKTVERKCCVECPPCPAPPVAGPSVFLFPPKPKDTLMISRTPEVTCVVVDVSHEDPEVQFNWYVDGVEVHNAKTKPREEQFNSTFRVVSVLTVVHQDWLNGKEYKCKVSNKGLPAPIEKTISKTKGQPREPQVYTLPPSREEMTKNQVSLTCLVKGFYPSDIAVEWESNGQPENNYKTTPPMLDSDGSFFLYSKLTVDKSRWQQGNVFSCSVMHEALHNHYTQKSLSLSPGKGGGGGLPGCKWDLLIKQWVCDPLGSGSATGGSGSSASSGSGSATHLLPGCKWDLLIKQWVCDPL
light: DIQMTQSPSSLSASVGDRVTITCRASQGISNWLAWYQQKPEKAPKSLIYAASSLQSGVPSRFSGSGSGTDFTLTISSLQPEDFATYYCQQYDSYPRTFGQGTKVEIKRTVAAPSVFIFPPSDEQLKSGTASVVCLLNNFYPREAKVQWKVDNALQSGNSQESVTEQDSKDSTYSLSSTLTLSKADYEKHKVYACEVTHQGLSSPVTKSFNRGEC
notes: variant of P71619 with a modified linker
For B2, the “IC50 (nM) for inhibition of BAFF-mediated human B cell proliferation” value in assay [1] was 0.96 nM. The “IC50 (nM) for inhibition of BAFF-mediated cynomolgus monkey B cell proliferation” value in assay [2] stood at 1.8 nM. Further, the “IC50 (nM) for inhibition of B7RP1-mediated human T cell proliferation” value in assay [3] was determined as 0.98 nM. Further, the Kd stood at 0.037 nM in assay [5], 0.0174 nM in the assay with cynomolgus monkey BAFF, 0.041 nM in assay [6] and 0.0452 nM with cynomolgus monkey B7RP1.
